Test results reported in patent US20250270315A1 (ELPISCIENCE SUZHOU BIOPHARMA, published 2025).
Residue numbers refer to the chain shown, from its start.

T1: C57BL/6 mouse SIRPα ECD recombinant protein (6×His tagged) (C57BL/6 mouse, UniProt P97797 32-373)
T1 construct: extracellular domain; Bought from Biointron; not shown: 6×His tag
T1 sequence (looked up): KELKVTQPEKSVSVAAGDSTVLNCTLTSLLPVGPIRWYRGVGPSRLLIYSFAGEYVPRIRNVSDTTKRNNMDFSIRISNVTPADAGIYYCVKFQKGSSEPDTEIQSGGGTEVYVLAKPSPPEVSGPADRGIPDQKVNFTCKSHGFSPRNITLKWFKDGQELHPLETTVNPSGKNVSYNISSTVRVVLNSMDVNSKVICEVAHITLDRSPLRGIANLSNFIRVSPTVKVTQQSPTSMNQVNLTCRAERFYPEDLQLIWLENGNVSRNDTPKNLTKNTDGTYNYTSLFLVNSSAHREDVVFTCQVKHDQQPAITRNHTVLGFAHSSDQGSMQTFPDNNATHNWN

B1: hu1H9G4 (antibody, V domains shown)
VH: QVQLVQSGAEVKKPGASVKVSCKASGYTFTSYWITWVKQAPGQGLEWIGDIYPGSGSTNHIEKFKSKATLTVDTSISTAYMELSRLRSDDTAVYYCATGYGSSYGYFDYWGQGTLVTVSS
VL: DIQMTQSPSSLSASVGDRVTITCRASENIYSYLAWYQQKPGKAPKLLIYTAKTLAEGVPSRFSGSGSGTDFTLTISSLQPEDFATYYCQHQYGPPFTFGQGTKLELK
B2: 042c (antibody, V domains shown)
VH: QIQLVQSGPELKKPGETVKISCRASGYTFTTYGMSWVKQAPGKGLRWMGWINTYSGVSTCADDFKGRFAFSLETSATTAYLQIHNLTNEDTATYFCARDPHSYGNSPAWFPYWGQGTLVTVSA
VL: DIVMTQSQKFMSTTIRDRVSITCKASQNVGISVAWYQQKSGQSPKLLIYSASNRYTGVPDRFTGSGSGTDFTLTISNMQSEDLADYFCQQYSSYPLTFGSGTKLAIK
notes: also called chimeric antibody 042c
B3: 015c (antibody, V domains shown)
VH: EVQLQQSGVEVVQPGASVKLSCTASGFNIEAYYMHWVKQRTEQGLEWIGRIDPEDGESKYAPKFQGKATMTADTSSSTAYLQLSSLTSDDTAVYYCVRGSYEYWGQGTTLTVSS
VL: QIVLTQSPAIMSASPGEKVTLTCSASSSVSSSYLYWYQQKPGSSPKLWIYSTSNLASGVPPRFSGSGSGTSYSLTISSMQAEDAASYFCYQWSSYPYTFGGGTKLEIK
notes: also called chimeric antibody 015c
B4: 059c (antibody, V domains shown)
VH: QVQLQQSGPELVKPGASVKMSCKASGYTFSEYVLSWVKQRTGQGLEWIGEIYPGTITTYYNEKFKGKATLTADKSSNTAYIQLTSLTSEDSAVYFCGRFYDYDGGWFAYWGQGTLLTVSA
VL: ENVLTQSPEKMAVSLGQKVTMTCSASSSVSSSDLHWYQQKSGASPKPLIHGTSNLASGVPARFSGSGSGTSYSLTISSVEAEDAATYYCQQWSGYPWTFGGGTNLEIK
notes: also called chimeric antibody 059c
B5: 071c (antibody, V domains shown)
VH: QIQLVQSGPELKKPGETVKISCKASGYTFTTYGMSWVKQAPGKGLKWMVWINTYSGVPTYADDFQGRFAFSLETSASTSYLQINNLRNEDTATYFCARDPHYYGTSPAWFAYWGQGTLVTVSA
VL: B2 VL with R16G, S20I, N28I, S32A, S40P, Y55F, S93T, L96F, A105E
notes: also called chimeric antibody 071c

Target: T2, mFc tagged human SIRPα v1 ECD recombinant protein (human, UniProt P78324 31-373)
T2 construct: extracellular domain; Bought from Biointron; not shown: mouse IgG Fc (mFc) tag
Experiment: competitive ELISA binning, mFc-SIRPα v1 ECD; competitor hu1H9G4
Experimental: (§1) Competitive ELISA assay was used for epitope binning of purified chimeric antibodies. Briefly excessive competitor antibody and mFc tagged human SIRPα v1 ECD recombinant protein were co-incubated with ELISA microplate coated antibody. After washing, HRP labeled anti-mouse Fc 2nd antibody (Sigma) was added and incubated at 37° C. for 1 hour. Then, 100 μl/well of TMB solution (Biotechnology) was added. After incubation for 15 minutes at room temperature, the reaction was stopped by the addition of 50 μl of 1N HCl. OD 450 nm was read. Competition ratio was calculated. The antibodies that can compete each other for binding to SIRPα may have related binding epitopes.

T2 sequence (P78324 31-373): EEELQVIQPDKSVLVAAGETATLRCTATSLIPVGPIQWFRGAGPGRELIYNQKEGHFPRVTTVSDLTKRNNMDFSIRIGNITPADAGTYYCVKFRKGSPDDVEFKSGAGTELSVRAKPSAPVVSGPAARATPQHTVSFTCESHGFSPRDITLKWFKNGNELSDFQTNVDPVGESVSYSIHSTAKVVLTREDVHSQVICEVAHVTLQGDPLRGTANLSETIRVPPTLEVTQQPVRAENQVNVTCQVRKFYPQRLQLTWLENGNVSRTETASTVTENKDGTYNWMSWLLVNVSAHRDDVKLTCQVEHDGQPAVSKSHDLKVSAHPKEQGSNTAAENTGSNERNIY

Binder	% Competition [%]
B1	90.5
B2	29.8

Target: Human SIRPα v1 (antigen of the Octet and Biacore affinity measurements) (human, UniProt P78324 31-370, limits assumed)
Experiment: BLI (Octet), 1:1 binding model
Experimental: The purified chimeric antibodies were characterized for binding affinity against human SIRPα v1, human SIRPα v2 using Bio-Layer Interferometry technology (Octet system). The association and dissociation curves were fit with 1:1 binding model, and the Ka/Kd/KD values for each antibody were calculated.

Chain of Human SIRPα v1 (antigen of the Octet and Biacore affinity measurements) (P78324 31-370 limits assumed): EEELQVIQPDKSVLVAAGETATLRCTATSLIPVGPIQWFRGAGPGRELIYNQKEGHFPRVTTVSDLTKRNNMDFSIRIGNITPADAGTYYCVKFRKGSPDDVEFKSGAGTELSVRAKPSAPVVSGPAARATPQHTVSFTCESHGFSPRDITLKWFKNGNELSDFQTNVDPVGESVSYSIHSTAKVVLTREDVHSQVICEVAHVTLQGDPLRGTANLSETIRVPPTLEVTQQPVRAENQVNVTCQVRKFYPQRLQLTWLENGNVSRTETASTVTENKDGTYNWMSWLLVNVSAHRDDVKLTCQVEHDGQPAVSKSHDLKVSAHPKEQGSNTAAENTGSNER

Binder	Kd [nM]	koff [s⁻¹]	kon [M⁻¹ s⁻¹]
B1	3.48	0.00277	795000
B3	0.338	0.000303	897000
B4	2.25	0.00213	944000
B2	9.2	0.00545	593000
B5	5.97	0.00327	548000

Target: T3, cyno SIRPγ ECD recombinant protein (cyno)
T3 construct: extracellular domain
Experiment: ELISA, cyno SIRPγ ECD

Binder	EC50 [nM]	TOP OD450 [OD450]
B1	0.48	1.81
B2	20.5	1.22

Target: T4, full length human SIRPα v1 stably expressed on CHOK1 or 293F cells (human, UniProt P78324 31-504)
T4 construct: whole, on cells; also called CHOK1-human SIRPα v1; CHOK1-hSIRPα v1
Experiment: FACS, CHOK1-hSIRPα v1 cells

T4 sequence (P78324 31-504): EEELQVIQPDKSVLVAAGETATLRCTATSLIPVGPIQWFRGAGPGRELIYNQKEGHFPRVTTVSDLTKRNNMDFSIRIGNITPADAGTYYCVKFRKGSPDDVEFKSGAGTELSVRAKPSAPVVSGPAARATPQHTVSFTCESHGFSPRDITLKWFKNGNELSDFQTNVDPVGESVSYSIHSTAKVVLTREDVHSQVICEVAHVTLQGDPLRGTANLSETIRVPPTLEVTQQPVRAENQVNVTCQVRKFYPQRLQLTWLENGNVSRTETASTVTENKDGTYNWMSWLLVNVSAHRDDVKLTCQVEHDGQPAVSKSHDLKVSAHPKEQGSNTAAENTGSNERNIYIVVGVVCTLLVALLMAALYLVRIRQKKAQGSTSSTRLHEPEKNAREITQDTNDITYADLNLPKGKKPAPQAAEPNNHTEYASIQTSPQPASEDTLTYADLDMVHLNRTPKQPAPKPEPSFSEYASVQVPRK

Binder	EC50 [nM]	TOP MFI [MFI]
B1	1.93	74600
B3	1.49	80000
B4	1.45	69800
B2	1.9	73200
B5	2.6	76500

Target: T5, human SIRPα v1 ECD recombinant protein (tag not given) (human, UniProt P78324 31-373)
T5 construct: extracellular domain; also called biotin labeled soluble human SIRPα v1 ECD recombinant protein; ELISA microplate coated human SIRPα v1 ECD
Experiment: competitive ELISA, mFc-CD47 ECD on coated SIRPα v1 ECD
Experimental: (§2) Competitive ELISA assay was used to determine whether the purified chimeric antibodies can block CD47 and SIRPα interaction. Briefly, antibody and mFc tagged human CD47 ECD recombinant protein were co-incubated with ELISA microplate coated human SIRPα v1 ECD (FIGS. 6A and 6B) or human SIRPα v2 ECD (FIGS. 7A and 7B) recombinant protein. After washing, HRP labeled anti-mouse Fc 2nd antibody (Sigma) was added and incubated at 37° C. for 1 hour. Then, 100 μl/well of TMB solution (Biotechnology) was added. After incubation for 15 minutes at room temperature, the reaction was stopped by the addition of 50 μl of 1N HCl. OD 450 nm was read. Blocking ratio was determined by blockade of human CD47 ECD recombinant protein binding to ELISA microplate coated human SIRPα ECD recombinant protein. Other than 005, all antibodies as tested can block interaction between human CD47 and different human SIRPα variants.

T5 sequence (P78324 31-373): as the sequence (P78324 31-373) above

Binder	IC50 [nM]	TOP blocking (%)
B1	1.91	97.5
B3	2.32	96.4
B4	2.63	97
B2	3.6	97.1
B5	2.86	94.1

Target: T6, human SIRPγ stably expressed on 293F cells (human, UniProt Q9P1W8 29-387)
T6 construct: whole, on cells
Experiment: FACS, 293F-human SIRPγ cells

T6 sequence (Q9P1W8 29-387): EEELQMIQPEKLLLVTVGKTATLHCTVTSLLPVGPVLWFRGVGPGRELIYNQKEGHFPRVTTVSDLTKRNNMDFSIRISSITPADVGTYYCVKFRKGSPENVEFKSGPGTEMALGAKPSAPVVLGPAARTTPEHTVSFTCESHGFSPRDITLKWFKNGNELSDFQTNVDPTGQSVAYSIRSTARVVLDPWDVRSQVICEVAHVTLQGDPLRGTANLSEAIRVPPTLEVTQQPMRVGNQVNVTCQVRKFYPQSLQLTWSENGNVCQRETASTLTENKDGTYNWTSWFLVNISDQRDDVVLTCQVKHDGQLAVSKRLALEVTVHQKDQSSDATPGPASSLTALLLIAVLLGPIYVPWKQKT

Binder	EC50 [nM]	TOP MFI [MFI]
B1	0.52	2720
B3	0.09	3300
B4	34.1	2860

Target: full length human SIRPα v1 with a small beta-gal fragment (ED) fused to its C-terminal, expressed in K562 … (human, UniProt P78324 31-504)
Experiment: cell-based or functional assay

Chain of full length human SIRPα v1 with a small beta-gal fragment (ED) fused to its C-terminal, expressed in K562 … (P78324 31-504): as the sequence (P78324 31-504) above

Binder	SHP-1 recruitment blocking, IC50 [nM]	SHP-1 recruitment blocking, TOP blocking (%)
B1	0.1	59.5
B3	0.09	73.5
B4	0.07	66.9
B2	0.99	70
B5	2.97	44.5

Target: T7, human SIRPβ stably expressed on CHOK1 cells (human, UniProt O00241 30-398)
T7 construct: whole, on cells; also called CHOK1-human SIRPB; CHOK1-hSIRPβ
Experiment: FACS, CHOK1-hSIRPβ cells
From the text: (§3) Binding activity of the purified chimeric antibodies against SIRPβ and SIRPBI was detected by ELISA assay using recombinant proteins of human SIRPβ ECD (FIGS. 3A and 3B), human SIRPBI ECD (FIGS. 3D and 3E) and FACS assay using CHOK 1 cells stably expressing human SIRPB (FIG. 3C).

T7 sequence (O00241 30-398): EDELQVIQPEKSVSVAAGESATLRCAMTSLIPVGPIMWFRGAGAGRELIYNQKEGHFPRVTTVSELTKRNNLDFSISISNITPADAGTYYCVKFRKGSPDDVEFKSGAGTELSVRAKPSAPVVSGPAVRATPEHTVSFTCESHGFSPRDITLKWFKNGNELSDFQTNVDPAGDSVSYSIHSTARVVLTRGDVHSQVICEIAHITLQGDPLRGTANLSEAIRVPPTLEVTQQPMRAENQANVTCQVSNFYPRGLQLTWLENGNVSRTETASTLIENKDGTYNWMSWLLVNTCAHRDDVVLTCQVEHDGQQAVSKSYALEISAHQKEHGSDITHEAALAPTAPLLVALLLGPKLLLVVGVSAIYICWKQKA

Binder	EC50 [nM]	TOP MFI [MFI]
B1	0.3	7140
B2	39.8	3910

Target: T8, human SIRPβ ECD recombinant protein (6×His tagged) (human, UniProt O00241 30-371)
T8 construct: extracellular domain; Bought from Sino Biological; also called hSIRPβ ECD; not shown: 6×His tag
Experiment: ELISA, hSIRPβ ECD
From the text: as §3

T8 sequence (O00241 30-371): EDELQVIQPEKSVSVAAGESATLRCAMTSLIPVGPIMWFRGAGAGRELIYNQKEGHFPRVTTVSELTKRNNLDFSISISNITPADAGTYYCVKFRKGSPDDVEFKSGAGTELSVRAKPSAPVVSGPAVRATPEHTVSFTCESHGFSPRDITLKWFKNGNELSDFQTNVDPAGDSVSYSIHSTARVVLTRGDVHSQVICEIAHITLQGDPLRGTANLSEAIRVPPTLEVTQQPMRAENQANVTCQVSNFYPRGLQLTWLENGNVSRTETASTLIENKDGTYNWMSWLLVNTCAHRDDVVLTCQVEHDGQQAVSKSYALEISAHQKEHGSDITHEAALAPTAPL

Binder	EC50 [nM]	TOP OD450 [OD450]
B1	0.03	3.22
B3	0.04	2.97
B4	0.03	2.75
B2	0.23	3.23
B5	1.53	2.98

Target: T9, human SIRPα v2 ECD recombinant protein (tag not given) (human)
T9 construct: extracellular domain; also called ELISA microplate coated human SIRPα v2 ECD
Experiment: competitive ELISA, mFc-CD47 ECD on coated SIRPα v2 ECD
Experimental: as §2

Binder	IC50 [nM]	TOP blocking (%)
B1	5.74	98.2
B3	2.45	96.7
B4	54.1	84.4
B2	4.49	94.6
B5	5.1	76.3

Target: T1, C57BL/6 mouse SIRPα ECD recombinant …
Experiment: ELISA, recombinant C57BL/6 mouse SIRPα ECD
From the text: Species cross reactivity of purified chimeric antibodies was detected by ELISA assay using recombinant protein of C57BL/6 mouse SIRPα ECD (FIG. 5A) and FACS assay using CHOK 1 cells stably expressing cyno SIRPα (FIGS. 5B and 5C). All antibodies as tested bind to cyno SIRPα at different levels but have no species cross reactivity against C57BL/6 mouse SIRPα.

Binder	binding result
B3	no binding
B4	no binding
B2	no binding
B5	no binding

Target: T10, human SIRPβL ECD recombinant protein (6×His tagged) (human, UniProt Q5TFQ8 30-371)
T10 construct: given variously as SIRPBL, SIRPBI and SIRPβI; Bought from Biointron; also called human SIRPBL ECD; human SIRPBI ECD
Experiment: ELISA, hSIRPβI ECD
From the text: as §3

T10 sequence (Q5TFQ8 30-371 limits assumed): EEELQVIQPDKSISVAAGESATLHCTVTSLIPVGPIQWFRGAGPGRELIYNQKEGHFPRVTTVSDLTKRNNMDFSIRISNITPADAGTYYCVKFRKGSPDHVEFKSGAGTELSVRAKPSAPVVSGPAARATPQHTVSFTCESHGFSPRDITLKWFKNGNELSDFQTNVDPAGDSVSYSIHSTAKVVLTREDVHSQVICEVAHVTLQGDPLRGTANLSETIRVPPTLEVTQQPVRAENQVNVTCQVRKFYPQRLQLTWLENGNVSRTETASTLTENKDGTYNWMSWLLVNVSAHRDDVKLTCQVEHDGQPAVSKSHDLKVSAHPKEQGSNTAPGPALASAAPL

Binder	EC50 [nM]	TOP OD450 [OD450]
B1	0.24	2.74
B3	0.4	3.1
B4	0.7	3.35
B2	0.39	2.69
B5	0.3	2.66

Target: T2, mFc tagged human SIRPα v1 ECD …
Experiment: competitive ELISA binning, mFc-SIRPα v1 ECD; competitor 042c
Experimental: as §1

Binder	% Competition [%]
B1	82.6
B2	93.9

Target: T2, mFc tagged human SIRPα v1 ECD …
Experiment: competitive ELISA binning, mFc-SIRPα v1 ECD; competitor 025c
Experimental: as §1

Binder	% Competition [%]
B1	14.5
B2	8.9

Target: T4, full length human SIRPα v1 stably …
Experiment: competitive FACS, mFc-CD47 ECD on CHOK1-human SIRPα v1 cells
Experimental: Competitive FACS assay was also set up to further compare the blocking activity of the humanized antibodies and reference antibodies. Briefly antibody and mFc tagged human CD47 ECD recombinant protein were co-incubated with CHOK1 cells stably expressing human SIRPα v1 (FIG. 16A) or human SIRPα v2 (FIG. 16B). After washing, dye labeled anti-mouse Fc 2nd antibody (Sigma) was added and incubated at 37° C. for 1 hour. Fluorescence intensity was detected. Blocking ratio was determined by blockade of human CD47 ECD recombinant protein binding to SIRPα expressed CHOK1 cells. […] In particular, HEFLB doesn't work at all for human SIRPα v2.

Binder	IC50 [nM]	TOP blocking (%)
B1	0.44	97.2
